Results: patent US20050079516A1, “Chromosome stability assay” (The Board of Trustees of the University of Illinois, priority 2003, published 2005)

B1: proteinase K: protease proteinase K, chromatin modifying agent (protein, UniProt P06873 106-384, looked up)
Proteinase K: AAQTNAPWGLARISSTSPGTSTYYYDESAGQGSCVYVIDTGIEASHPEFEGRAQMVKTYYYSSRDGNGHGTHCAGTVGSRTYGVAKKTQLFGVKVLDDNGSGQYSTIIAGMDFVASDKNNRNCPKGVVASLSLGGGYSSSVNSAAARLQSSGVMVAVAAGNNNADARNYSPASEPSVCTVGASDRYDRRSSFSNYGSVLDIFGPGTSILSTWIGGSTRSISGTSMATPHVAGLAAYLMTLGKTTAASACRYIADTANKGDLSNIPFGTVNLLAYNNYQA
B2: RNase A: nuclease (protein, UniProt P61823 27-150, looked up)
Ribonuclease pancreatic: KETAAAKFERQHMDSSTSAASSSNYCNQMMKSRNLTKDRCKPVNTFVHESLADVQAVCSQKNVACKNGQTNCYQSYSTMSITDCRETGSSKYPNCAYKTTQANKHIIVACEGNPYVPVHFDASV

Experiments:
[1] = tested on: chromatin strands from normal human microvascular endothelial cells; test: proteinase K treatment of isolated chromatin strands; format: biochemical; conditions: normal endothelial cell chromatin; proteinase K 5 mg/ml, 5 minutes
Method: (§1) FIGS. 2D and 2E illustrate the effects of treatment of chromatin strands from normal human microvascular endothelial cells and invasive HT1080 fibrosarcoma cells with proteinase K under the conditions described above except that proteinase K (5 mg/ml) was substituted for ALU and the incubation time was reduced from 60 minutes to 5 minutes.

[2] = tested on: chromatin strands from invasive HT1080 fibrosarcoma cells; test: as above; format: biochemical, human; conditions: proteinase K 5 mg/ml, 5 minutes
Method: as §1

chromatin strands = test: degradation of chromatin strands with other endonucleases; format: biochemical; conditions: isolated chromatin strands

Row | Molecule | chromatin dispersion (FIGS. 2D, 2E) [1] | chromatin dispersion (FIGS. 2D, 2E) [2] | correlation of chromatin cleavage pattern with invasive potential of the cell (chromatin strands)
1 | B1 | remained largely intact | extensively dispersed | 
2 | B2 |  |  | does not exhibit chromatin cleavage patterns that correlate with the invasive potential
